A short description of the series: yeast display, Sf9 membrane polyspecificity reagent, FACS + sequencing; frameworks hold sequencing errors. Summed up:
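A synthetic nanobody library was expressed on Saccharomyces cerevisiae BJ5465 by galactose induction for 36–48 hours. The library was stained for 1 hour at 4 °C with 10% biotinylated, detergent-solubilized Sf9 membrane reagent and enriched with streptavidin microbeads before FACS. Low and high (top ~1%) gates were set on anti-HA fluorescence for expression and streptavidin fluorescence for reagent binding, and each polyreactivity label reflects the gate of origin.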
Turning to “QVQLVESGGGLVQAGGSLSLSCAASGRIFADNAMGWYRQSPGKESELVADITYSGGSTYYAESVKGRFTISRDNAKNTLYLQMNSLNPEDTAFYYCAKQCVDYWGQGTQVTVSS”, the “polyreactivity (PSR sort gate)” value is reported as “low polyreactivity”.
For the sequence “QVQLVESGGGLVQAGGSLSLSCAASGRIFNQNAMGWYRQAPGKERELVAAISKSGTRTYYADSVKGRFTISRDNAKNTVYLQMNSLNREDTAVYYCAADYYRRIGGYRYDYDYWGQGTEVTVSS”, the “polyreactivity (PSR sort gate)” value is on record as “high polyreactivity”.
With “QVQLVESGGGLVQAGGSLSLSCAASGRIFPPYAMGWYRPAPGKERELVAAISVSGSNTYYADSVKGRFTISRYNAKNTVYLQMNSLKPEDTAVYYCNAKRYSPVYYWYDYCGQGTQVTVSS”, the “polyreactivity (PSR sort gate)” value is recorded as “high polyreactivity”.
Take “QVQLVESGGGLVQAGGSLSLSCAASGRIFYYNAMGWYRQAPGKERELVAAITRGGSTYYADSVKGRFTISRDNAKNTVYLQMNSLKPEDTAVYYCAADRTGYSRYTTSVKGQRYYYWGQGTQVTVSS”: the “polyreactivity (PSR sort gate)” value is listed as “high polyreactivity”.
As for “QVQLVESGGGLVQAGGSLSLSCAASGRIRRYTMGWYRQAPGKERELVASISGNGGSTYYADSVTGRFTISRDNAKNTVYLQMNSLKPEDTAVYDCARTKQEYTFGQFYLGDYWGQGTQVTVSS”, the entry is “low polyreactivity”; as for “QVQLVESGGGLVQAGGSLSLSCAASGRNFVINALGWYRQAPGTERELVARIRSGGSTNYADSVKGRFTISRDNAKNTVYLQMNSLKPEDTAVYYCAAYLRTERYGYWGQGTQVTVSS”, “high polyreactivity”.
As for “QVQLVESGGGLVQAGGSLSLSCAASGRTFDTYAMGWYRQAPGKERELVASITQSGGTTYYADSVKGRFTISRDNAKNTVYLQMNSLKPEDTAVYYCAARSYGSTSPIRVQLYYWGQGTQVTVSS”, the “polyreactivity (PSR sort gate)” value was “high polyreactivity”.
For the sequence “QVQLVESGGGLVQAGGSLSLSCAASGRTFFKYAMGWYRQAPGKERELVASITGRGGSTYADSVKGRFTISRDNAKNTVYLQMNSLKPEDTAVYYCAKVYQRGAQYYYYKYDYWGQGTQVTVSS”, the “polyreactivity (PSR sort gate)” value was “high polyreactivity”.
As for “QVQLVESGGGLVQAGGSLSLSCAASGRTFGSYAMGWYRQAPGKERELVAAITGSGGSTYYADSVKGRFTISRDNAKNNVYLQMNSLKPEDTAVYYCRYLFGYIAMDYWGQGTQVTVSS”, the entry is “low polyreactivity”; as for “QVQLVESGGGLVQAGGSLSLSCAASGRTFKRYAMGWYRQAPGKERELVAAITSSGTSTYADSVKGRFTISRDNAKNTVYFQMNSLKPEDTAVYYCNRGYFNSRTPTFDYWGQGTQVTVSS”, “low polyreactivity”; as for “QVQLVESGGGLVQAGGSLSLSCAASGRTFLYNAMGWYRQAPGKERELVAGITQSGSSTYYADSVKGRFTISRDNAKNTVYLQMNSMKPEDTAVYYCAKVLYRRGYKFDYWGQGTQVTVSS”, “low polyreactivity”.
Regarding “QVQLVESGGGLVQAGGSLSLSCAASGRTFQSYAMGWYRQAPGKERELVATITSRGGSTYYADSVKGRFTISRDNAKYTVYLQMNSLKPEVTAVYYCAKRFKSYLGYDYWGQGTQVTVSS”, the “polyreactivity (PSR sort gate)” value was “low polyreactivity”.
For “QVQLVESGGGLVQAGGSLSLSCAASGRTFTPNVMGWYRQAPGKERELVAGISSTGGSTYYADSVKGRFTISRDNAKNTVYLHMNSLKPEDTAVYYCAKEYYDGYFPTFDYDYWGQGTQVTVSS” the value was “low polyreactivity”; for “QVQLVESGGGLVQAGGSLSLSCAASGRTFVYYAMGWYRQAPGKERELVAAISSSGGRTYYADSVKGRFTISRDNAKNTVYLQMNSLKPEDTAVYYCAARRLSPIYDSWGQGTQVTVSS”, “high polyreactivity”.
As for “QVQLVESGGGLVQAGGSLSLSCAASGRTLYSNAMGWYRPAPGKERELVAAISRRGSSTYYADSVKGRFTISRDNAKNSVFLQMNSLKPEDTAVYYCARYKYTRQTRVEYGYWGQGTQVTVSS”, the entry is “high polyreactivity”; as for “QVQLVESGGGLVQAGGSLSLSCAASGRTLYVYTMGWYRQAPGKERELVASISSGVGTNYADSVKGRFTISRDNAKNTDYLQMNSLKPEDTAVYYCAARFRYYRHYYWGQGTQVTVSS”, “high polyreactivity”.
On to “QVQLVESGGGLVQAGGSLSLSCAASGRTMYTNAMGWYIQAPGKERELVAVITLSTDGTYYADSVKGRFTISRDNAKNTVYLQMNSLKPEDTAVYYCAIGDPDGDREIWRLYYWGQGTKVTVSS”, for which the “polyreactivity (PSR sort gate)” value is on record as “low polyreactivity”.
As to “QVQLVESGGGLVQAGGSLSLSCAASGSIFESNAMGLYRQAPGKERELVAAYADSVKGRFTISRDNAKNTVYLQMNSLKPEDTAVYYCAKSLSLYVVPLYEYWGQGTQVTVSS”, the “polyreactivity (PSR sort gate)” value was “low polyreactivity”.
“QVQLVESGGGLVQAGGSLSLSCAASGSIFYYYAMGWYRKAPGKERELVASIRSGGSTNYADSVKGRFTISRDNAKNTVYLQKNSLKPEDTAVYYCAARKFYASSLRYGYWGQCTQVTVSS”: the “polyreactivity (PSR sort gate)” value is reported as “high polyreactivity”.
As for “QVQLVESGGGLVQAGGSLSLSCAASGSILVGYAMGWYRQAPGKERELVARISTSGGSTTYYADSVKGRFTISRDNAKNTVYLQMNSLKPEDTAVYYCAADYKPYYRRRYDYWGQGTQVTVSS”, the entry is “low polyreactivity”; as for “QVQLVESGGGLVQAGGSLSLSCAASGSNFVYYAMGWSRQAPGKERELVAAINFRGGNTYYADSVKGRFTISRDNAKNTVYLQMNSLKPEDTAVYYCAADYRWKWIGGARYDYWGQGTQVTVSS”, “low polyreactivity”.
As for “QVQLVESGGGLVQAGGSLSLSCAASGSTFIKNAMGWYRQAPGKESELVAAINWSGTRTYYADSVKGRFTISRDNANNTVYLKMNSLKPEDTAVYYCAKVIARFVRYDYWGQGTQVTVSS”, the entry is “high polyreactivity”; as for “QVQLVESGGGLVQAGGSLSLSCAASGSTFQLYAKGWYRQAPGKERELVAAISGIGDSTYYADSVKWRFTISRDNAKNTVYLLMNSLKPEDTAVYYCAREFSDGLSGKFDYWGHGTQVTVSS”, “low polyreactivity”.
Regarding “QVQLVESGGGLVQAGGSLSLSCAASGSTFSRNTMGRYRQAPRKERELVAGISSSGGSTYYADSVKGRFTISRDNAKNTVYLQMNSLKQEDTAVYYCSARFYVSFVGYNYWGQGTQVTVSS”, the “polyreactivity (PSR sort gate)” value is given as “high polyreactivity”.
As for “QVQLVESGGGLVQAGGSLSLSCAASGSTFYYNAMGWYRQAPGKEREFVAAINWRGGSTYYADSVKGRFTISRDNAKNTVYLQMNSLKPEDTAVYYCSAEEASTYYYVRSGYDYHFWEMYSWGQGTQVTVSS”, the entry is “low polyreactivity”; as for “QVQLVESGGGLVQAGGSLSLSCAASGSTMATYTMGWYRQAPGKERELVAAISFGGSTYYADSVKGRFTISRDNAKNTVYLQMNSLKPEDTAVYYCAVYGDSYWGAYYYSDGYWGQGTQVTVSS”, “low polyreactivity”; as for “QVQLVESGGGLVQAGGSLSLSCAATGSTFAQNAMGWYRQAPGKERELVAAISRRGGSTYYADSVKGRFTISRDNAKNTVYVQMNSLKPEDTAVYYCAADQPVRQHHRDDYWGQGTQVTVSS”, “low polyreactivity”.
For “QVQLVESGGGLVQAGGSLSLSCAAYGGIFPENAMGWYRLAPGKERELVAAMSRSGSSTYYADSVKGRFTISRDNAKNTVFLQMNSLKPEVTAVSYCAARGVKWGQGSQVTVSS”, the “polyreactivity (PSR sort gate)” value was “high polyreactivity”.
As to “QVQLVESGGGLVQAGGSLSLSCADSGLTFRKYAMGWYRQAPGKERELVAAISWSGGSTYYANSVKGRFTISRDNAKNTVYLQMNSLKPEETAVYYCAAVPVHTGSMYWGFTNGYDYWGQGTQVTLSS”, the “polyreactivity (PSR sort gate)” value is listed as “low polyreactivity”.
For “QVQLVESGGGLVQAGGSLSLSCDASGFTFRYYFMGWYRQAPGKERELVAAISYTGRTTYYADSVKGRFTISRDNAKNTVYLQMNSLKPEDTAVYYCASGAIGYNGKAYGMDYWGQGTEVTVSS” the value was “high polyreactivity”.

The record behind these values is the nanobody polyreactivity screen of Harvey et al. (2022).
